From patent US20190055314A1 (ADAGENE, published 2019)

Biological target: T1, human CD137 ligand (human, UniProt P41273 71-254, limits assumed, biotinylated in Example 6)
T1 construct: also called HuCD137L; biotinylated CD137L
Assay: flow cytometry

T1 sequence (P41273 71-254 limits assumed): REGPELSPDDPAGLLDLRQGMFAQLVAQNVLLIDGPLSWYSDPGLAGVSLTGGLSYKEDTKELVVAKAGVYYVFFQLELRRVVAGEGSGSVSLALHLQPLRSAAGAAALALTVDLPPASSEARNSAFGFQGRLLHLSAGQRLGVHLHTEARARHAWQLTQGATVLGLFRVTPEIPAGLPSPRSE

binding result: no binding
B1: full-length mouse CD137 on the cell surface (receptor)
chain: VQNSCDNCQPGTFCRKYNPVCKSCPPSTFSSIGGQPNCNICRVCAGYFRFKKFCSSTHNAECECIEGFHCLGPQCTRCEKDCRPGQELTKQGCKTCSLGTFNDQNGTGVCRPWTNCSLDGRSVLKTGTTEKDVVCGPPVVSFSPSTTISVTPEGG
